± gives the standard deviation of the averaged measurements.
Legend:
Saccharomyces cerevisiae [1] = test: protein stability index of tFT-peptide fusion (C-terminal peptide) (PSI (0-1 scale)); higher = more stable (slower turnover)
Procedure: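 MPS profiling in S. cerevisiae of the tFT-X12 degron library: putative degron peptides plus stable controls, 12 aa, fused to the C-terminus of a sfGFP-mCherry timer. Cells are FACS-sorted into 8 mCherry/sfGFP bins and deep-sequenced. PSI runs from 0 (unstable) to 1 (stable). Backgrounds are wild type, das1Δ and doa10Δ at 30 °C, and wild type, das1Δ, cdc34-1 and cdc53-1 at 37 °C; 2-3 technical replicates each.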

Saccharomyces cerevisiae [2] = test: as above; settings: genetic background: wild type; temperature: 30 C
[3] = genetic background: cdc34-1, temperature: 37 C
[4] = genetic background: cdc53-1, temperature: 37 C
[5] = genetic background: das1 deletion, temperature: 30 C
[6] = genetic background: das1 deletion, temperature: 37 C
[7] = genetic background: doa10 deletion, temperature: 30 C
[8] = genetic background: wild type, temperature: 30 C
[9] = genetic background: wild type, temperature: 37 C
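Further: PSI is a weighted mean of sequencing reads over stability bins, variants kept only with over 10 reads, mCherry proximal and sfGFP distal, peptide attached via GGGS linker.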

Sequence | protein stability index (Saccharomyces cerevisiae [1]; [3]) | protein stability index (Saccharomyces cerevisiae [1]; [4]) | protein stability index (Saccharomyces cerevisiae [1]; [5]) | protein stability index (Saccharomyces cerevisiae [1]; [6]) | protein stability index (Saccharomyces cerevisiae [1]; [7]) | protein stability index (Saccharomyces cerevisiae [1]; [8]) | protein stability index (Saccharomyces cerevisiae [1]; [9]) | protein stability index (Saccharomyces cerevisiae [2])
VCRGWCVVRYIL | 0.593 ± 0.015 | 0.699 ± 0.0099 | 0.574 ± 0.012 | 0.7226 ± 0.0024 | 0.173 ± 0.00096 | 0.18 ± 0.016 | 0.259 ± 0.0046 | 0.281 ± 0.064
GCFVDRVYVVVV | 0.52605 ± 0.00036 | 0.543 ± 0.043 | 0.381 ± 0.026 | 0.546 ± 0.016 | 0.366 ± 0.014 | 0.387 ± 0.022 | 0.522 ± 0.0064 | 0.4763 ± 0.00091
PVHARYCSLKWA | 0.658 ± 0.037 | 0.741 ± 0.021 | 0.6329 ± 0.0026 | 0.7389 ± 0.0042 | 0.237 ± 0.036 | 0.279 ± 0.013 | 0.5159 ± 0.0024 | 0.373 ± 0.087
HRLQFKGYPICA | 0.243 ± 0.039 | 0.255 ± 0.067 | 0.235 ± 0.048 | 0.371 ± 0.015 | 0.18 ± 0.0058 | 0.223 ± 0.025 | 0.338 ± 0.0061 | 0.33 ± 0.0051
MWFVGLCLHFFM | 0.472 ± 0.029 | 0.5504 ± 0.0014 | 0.409 ± 0.024 | 0.546 ± 0.035 | 0.344 ± 0.0067 | 0.364 ± 0.017 | 0.499 ± 0.019 | 0.3985 ± 0.0019
VYVVLGTVYVTY | 0.195 ± 0.014 | 0.325 ± 0.013 | 0.194 ± 0.025 | 0.381 ± 0.0087 | 0.166 ± 0.0049 | 0.187 ± 0.031 | 0.362 ± 0.021 | 0.273 ± 0.025
GHSALWQVPRLM | 0.697 ± 0.053 | 0.733 ± 0.014 | 0.65 ± 0.048 | 0.7535 ± 0.0069 | 0.26 ± 0.013 | 0.29 ± 0.0041 | 0.574 ± 0.023 | 0.474 ± 0.015
WLCVFVFGIFFV | 0.146 ± 0.016 | 0.162 ± 0.01 | 0.179 ± 0.026 | 0.2894 ± 0.0021 | 0.292 ± 0.0061 | 0.186 ± 0.016 | 0.266 ± 0.0091 | 0.204 ± 0.016
VLYSRFPPPLIA | 0.51169 ± 7.2e-05 | 0.537 ± 0.0073 | 0.43 ± 0.022 | 0.554 ± 0.02 | 0.396 ± 0.0062 | 0.415 ± 0.023 | 0.5375 ± 0.0029 | 0.4803 ± 0.0032
VQLFCLRREMII | 0.544 ± 0.025 | 0.609 ± 0.009 | 0.503 ± 0.027 | 0.583 ± 0.043 | 0.335 ± 0.0084 | 0.365 ± 0.019 | 0.506 ± 0.013 | 0.381 ± 0.0047
SVECLCLFVACR | 0.1923 ± 0.00067 | 0.254 ± 0.0049 | 0.193 ± 0.026 | 0.3432 ± 0.0011 | 0.155 ± 0.0075 | 0.184 ± 0.025 | 0.288 ± 0.0032 | 0.259 ± 0.013
LCSVVIFCLVWG | 0.117 ± 0.0048 | 0.263 ± 0.041 | 0.198 ± 0.03 | 0.343 ± 0.044 | 0.177 ± 0.008 | 0.182 ± 0.019 | 0.306 ± 0.0083 | 0.324 ± 0.022
GFFCFLYFVVMF | 0.148 ± 0.0033 | 0.1695 ± 0.0013 | 0.18 ± 0.026 | 0.296 ± 0.013 | 0.2127 ± 0.0014 | 0.187 ± 0.018 | 0.277 ± 0.0028 | 0.226 ± 0.021
SWTAYSYQWVFF | 0.407 ± 0.025 | 0.57 ± 0.0072 | 0.4972 ± 0.0028 | 0.577 ± 0.016 | 0.0469 ± 0.0093 | 0.0403 ± 0.018 | 0.215 ± 0.031 | 0.128 ± 0.014
SVIAYTKPLWFR | 0.4205 ± 0.0039 | 0.3736 ± 0.0027 | 0.351 ± 0.032 | 0.498 ± 0.009 | 0.658 ± 0.02 | 0.361 ± 0.016 | 0.486 ± 0.013 | 0.475 ± 0.0065
SGRGFSFVLCTV | 0.539 ± 0.039 | 0.599 ± 0.013 | 0.339 ± 0.035 | 0.58 ± 0.017 | 0.307 ± 0.013 | 0.339 ± 0.025 | 0.58 ± 0.015 | 0.4119 ± 2.1e-05
SLRYRFLSFFFL | 0.615 ± 0.038 | 0.72 ± 0.018 | 0.636 ± 0.055 | 0.7089 ± 0.0057 | 0.189 ± 0.015 | 0.208 ± 0.019 | 0.338 ± 0.023 | 0.282 ± 0.026
GSLVLSCLMSRA | 0.558 ± 0.04 | 0.603 ± 0.018 | 0.42 ± 0.034 | 0.573 ± 0.0029 | 0.431 ± 0.037 | 0.438 ± 0.012 | 0.537 ± 0.02 | 0.4872 ± 0.00045
YFICLSLVLFSY | 0.163 ± 0.058 | 0.274 ± 0.05 | 0.215 ± 0.024 | 0.351 ± 0.032 | 0.202 ± 0.02 | 0.179 ± 0.03 | 0.306 ± 0.021 | 0.303 ± 0.069
LCVWRRAIVWVG | 0.363 ± 0.038 | 0.4573 ± 0.0015 | 0.352 ± 0.025 | 0.512 ± 0.007 | 0.0712 ± 0.011 | 0.0818 ± 0.021 | 0.0815 ± 0.0071 | 0.137 ± 0.039

Sequence | protein stability index (Saccharomyces cerevisiae [1]; [3]) | protein stability index (Saccharomyces cerevisiae [1]; [4]) | protein stability index (Saccharomyces cerevisiae [1]; [5]) | protein stability index (Saccharomyces cerevisiae [1]; [6]) | protein stability index (Saccharomyces cerevisiae [1]; [7]) | protein stability index (Saccharomyces cerevisiae [1]; [8]) | protein stability index (Saccharomyces cerevisiae [1]; [9]) | protein stability index (Saccharomyces cerevisiae [2])
DFLSGRCIFFYV | 0.702 ± 0.029 | 0.797 ± 0.009 | 0.6451 ± 0.0058 | 0.762 ± 0.016 | 0.243 ± 0.014 | 0.277 ± 0.029 | 0.512 ± 0.011 | 0.445 ± 0.0099
SVLRCPVILLAY | 0.0423 ± 0.031 | 0.0232 ± 0.0025 | 0.0735 ± 0.036 | 0.0681 ± 0.008 | 0.0717 ± 0.0093 | 0.078 ± 0.017 | 0.0527 ± 0.02 | 0.0975 ± 0.012
CLVFGFLFFIVI | 0.35 ± 0.028 | 0.411 ± 0.061 | 0.338 ± 0.026 | 0.449 ± 0.016 | 0.435 ± 0.016 | 0.35 ± 0.029 | 0.447 ± 0.037 | 0.404 ± 0.021
SYCFCCCVLFWG | 0.432 ± 0.019 | 0.517 ± 0.011 | 0.352 ± 0.028 | 0.559 ± 0.056 | 0.325 ± 0.011 | 0.357 ± 0.017 | 0.502 ± 0.018 | 0.407 ± 0.026
AFLFLFSITCIV | 0.181 ± 0.011 | 0.23 ± 0.0042 | 0.195 ± 0.029 | 0.342 ± 0.0063 | 0.197 ± 0.014 | 0.19 ± 0.028 | 0.313 ± 0.0012 | 0.241 ± 0.013
FFFSLFFVLFFA | 0.284 ± 0.035 | 0.23 ± 0.011 | 0.21 ± 0.035 | 0.348 ± 0.061 | 0.323 ± 0.028 | 0.2 ± 0.022 | 0.314 ± 0.013 | 0.22 ± 0.0051
RQILYYRERFIP | 0.577 ± 0.043 | 0.715 ± 0.014 | 0.634 ± 0.011 | 0.694 ± 0.027 | 0.169 ± 0.012 | 0.196 ± 0.022 | 0.355 ± 0.017 | 0.313 ± 0.0065
SRSFWHAIVFLA | 0.373 ± 0.043 | 0.589 ± 0.015 | 0.542 ± 0.026 | 0.649 ± 0.0067 | 0.0822 ± 0.036 | 0.0959 ± 0.028 | 0.0963 ± 0.018 | 0.122 ± 0.085
LSLFPFLPSPCP | 0.736 ± 0.03 | 0.777 ± 0.0099 | 0.671 ± 0.009 | 0.752 ± 0.035 | 0.674 ± 0.036 | 0.669 ± 0.021 | 0.744 ± 0.018 | 0.748 ± 0.07
VLLYRIAPRLLH | 0.597 ± 0.079 | 0.6841 ± 0.0027 | 0.6298 ± 0.0035 | 0.735 ± 0.016 | 0.181 ± 0.019 | 0.202 ± 0.023 | 0.4082 ± 0.0026 | 0.303 ± 0.03
PLCLFPPLLVFL | 0.492 ± 0.044 | 0.526 ± 0.034 | 0.411 ± 0.024 | 0.556 ± 0.021 | 0.453 ± 0.022 | 0.387 ± 0.02 | 0.5103 ± 0.0047 | 0.462 ± 0.032
EGLCCGAYFLVF | 0.695 ± 0.038 | 0.7228 ± 0.00076 | 0.584 ± 0.034 | 0.709 ± 0.0098 | 0.558 ± 0.014 | 0.587 ± 0.035 | 0.6751 ± 0.0057 | 0.571 ± 0.14
LRMMLLVTIILE | 0.0571 ± 0.0011 | 0.115 ± 0.0084 | 0.107 ± 0.028 | 0.216 ± 0.0072 | 0.0875 ± 0.023 | 0.0921 ± 0.025 | 0.198 ± 0.026 | 0.188 ± 0.037
FSCLCLCVATSG | 0.348 ± 0.031 | 0.396 ± 0.056 | 0.221 ± 0.019 | 0.379 ± 0.015 | 0.237 ± 0.031 | 0.219 ± 0.023 | 0.355 ± 0.03 | 0.23 ± 0.013
EKTKRGLIQRVV | 0.68 ± 0.064 | 0.721 ± 0.012 | 0.641 ± 0.021 | 0.693 ± 0.015 | 0.247 ± 0.016 | 0.293 ± 0.046 | 0.554 ± 0.025 | 0.3931 ± 0.0028
FLPHLMCVFSFC | 0.456 ± 0.05 | 0.489 ± 0.01 | 0.394 ± 0.028 | 0.522 ± 0.0054 | 0.3324 ± 0.0015 | 0.334 ± 0.016 | 0.465 ± 0.0064 | 0.382 ± 0.0022
LVGLLASWLRFN | 0.579 ± 0.052 | 0.6987 ± 0.001 | 0.672 ± 0.0051 | 0.773 ± 0.017 | 0.12 ± 0.0057 | 0.137 ± 0.012 | 0.199 ± 0.061 | 0.137 ± 0.039
FLGVFFYFLLCV | 0.235 ± 0.02 | 0.2583 ± 0.002 | 0.254 ± 0.026 | 0.35871 ± 0.00032 | 0.2529 ± 0.0012 | 0.239 ± 0.013 | 0.326 ± 0.0064 | 0.379 ± 0.03
HVCKLAMFQWYF | 0.6 ± 0.011 | 0.713 ± 0.031 | 0.609 ± 0.012 | 0.72211 ± 0.00042 | 0.2873 ± 0.0019 | 0.302 ± 0.02 | 0.533 ± 0.029 | 0.371 ± 0.018
